Measured values published in patent US9529005B2, “Modulating bacterial MAM polypeptides in pathogenic disease” (priority 2011, dated 2016).
Read-outs that look alike come from different tables or passages of the source.

B1: MAM7: recombinant MBP-tagged V. parahaemolyticus multivalent adhesion molecule with seven mce domains in tandem (SEQ ID NO:1) (protein, listed as Vibrio parahaemolyticus)
chain: MSDQNNSQTSYVPDVKRSKGISPLWLLPILTMVLAGWLVVKSIHDAGQRVQIYFSDAAGLVAGRTTIRYQGLEVGMVRDINLSEDLGSIYVDADIYPEATKLLNDKTRFWLVKPTASLTGVSGLDALVSGNYISIQPGDGQEFETTFHALDSAPTDLRVSQGLNIKLKSRDLGGVSIGSQIVYKKIPIGAVYSYQLDEDAKSITIQANIQEQYRHIINDRSRFWNVSGIGASIGFEGVDVRLESMSALLGGAIAVDSPDDGEPVEENTEFRLYKDLKTAGRGIAIKIALPDDNKVSSEGAPIMYRGIEIGQVTDLSLSEGREVILASAAIQPAFSDMLTTGTRFVLEEAKVSLSGVENIANLVRGNFLTIVPGDGERSRRFTAIRKNVFNQQQEKSIAIRLISDNSFGLDSGANVLYKGIVVGSIINVGLVDEKKQTKHEVFMDVLIDHEYKHLIKSNNRFYVTGSASAELTESGLSVTVPPAKQLLTGSISFVSEGSESIQKEYQLFQNESLAELAQYNKTGSKTLMLFASELPPISKGSPLLYRNLPVGNVSDFHLVDGGVLIKATIENRFAYLVTPQTVFWNRSGIEIDASLSGVSVKAHPLKSLIEGGIAFDSVPGVENKVGERWKLYADQQKARKFGRVISLETDGTQEVLKGMPIEYQGVKVGEVTLVVPNFRRNLVEVTARILPEYVENIAVEGTHFWLTEPEIGLGGVKNLGALVSKSISVEPGNGKAKFDFQLEKGFDRVEGVMFTLQSEQRGSVQVGTPVLYRQMEVGQVTDVRLGEFADRVVSTIKIKPEYAYLVRQNSVFWNVSGVDVSIGITGANIKAGTIDSLVRGGIAFSTPEQSQIPPAAKRGHSFYLYPRADESWVQWRTPIPKP
modifications: MBP tag

Tests used:
HeLa cells [1] = format: cell-based; settings: 500 μM heparin from intestinal mucosa
HeLa cells [2] = assay: Fluorescence attachment assay: saturation binding of labeled MBP-MAM proteins to HeLa cells
[3] = Liposome association assay; format: binding; settings: MBP-MAM proteins, PC/PA liposomes
Procedure: PBS-buffered liposomes were prepared from 1,2-Dioleoyl-sn-glycero-3-phosphocholine (PC) or mixtures of PC and 1,2-dioleoyl-sn-glycero-3-phosphate (PA) (both Avanti Polar Lipids Inc.) as described previously (Selyunin et al., 2011), but using PBS as buffer. 300 μg liposomes were incubated with 100 μg MBP-MAM protein in PBS for one hour at 22° C. Mixtures were centrifuged at 100 000×g, 4° C. for one hour and both pellet and supernatant fractions were separated by SDS-PAGE and proteins were detected by Coomassie staining.
Binding of GST and GST-mce constructs to liposomes were carried out as described in the literature (Krachler et al., 2011). 300 μg liposomes containing PC alone or 1-80 mol % PA were incubated with 100 μg GST and GST-mce proteins in PBS for one hour at 22° C. Mixtures were centrifuged at 100,000×g, 4° C. for one hour and both pellet and supernatant fractions were separated by SDS-PAGE and proteins detected by Coomassie staining Band intensities were determined using the gel analysis software UN-SCAN-IT (Silk Scientific Inc.) and intensities of pellet samples (% bound) were expressed as fraction of total intensities (supernatant and pellet samples combined).

Lipid overlay assay = format: binding; settings: MBP-MAM proteins
Procedure: Pre-spotted PIPstrips™ (Echelon Biosciences Inc.) were incubated in T-TBS containing 5% dry milk powder for one hour at 22° C. MBP-MAM proteins were diluted into blocking buffer to give a final concentration of 10 μM and incubated with the PIP strip for one hour at 22° C. Strips were washed with T-TBS three times for 10 minutes each and incubated with His antibody (QIAGEN) diluted 1:1000 into blocking buffer at 22° C. for one hour. Strips were washed three times with T-TBS and incubated with anti-mouse HRP-conjugated secondary antibody (GE Healthcare) diluted 1:5000 into blocking buffer for 1 hour at 22° C. After three more washes, bound proteins were detected using the ECL plus detection system (GE Healthcare).

trypsinized cells = assay: Fluorescence attachment assay of labeled MAM7 on trypsinized cells; format: binding; settings: cells treated with trypsin
Procedure: HeLa cells were cultured in sterilized Corning costar 96 well plates (15 000 cells/well) for 16 hours prior to experiments. ALEXAFLUOR®-labeled (fluorescent dye) proteins were diluted into PBS to give final concentrations of 0.1-100 μM and incubated with cells washed with PBS for 1 hour at 37° C. Initial fluorescence and fluorescence output were measured on a plate reader (λexcitation 485 nm, λemission 520 nm) prior to and following three washes with PBS, respectively. Data was expressed as % bound fluorescence and corrected for values determined for MBP alone. Levels of bound protein were blotted as a function of protein concentration and data were fit to a single-site binding model using Sigma Plot. For fluorescence attachment assays on trypsinized cells, cells were detached from the culture dish by trypsinization, which was stopped by adding DMEM after 5 minutes. Cells were adjusted to 600,000/ml in PBS and incubated with 100 μM labeled MBP-MAM7 or MBP in PBS for 30 minutes at 37° C. Fluorescence of the cell suspension was measured before and after extensive washing with PBS as described above.
Attachment assays with live bacteria or purified labeled protein were carried out as described (Krachler et al., 2011). […]

V. parahaemolyticus POR1 = assay: BL21 expressing MAM constructs blocking POR1 attachment and POR1-mediated cytotoxicity; settings: construct expressed on E. coli BL21, identical multiplicity of infection

Molecule | BL21-MAM7 remaining attached (HeLa cells [1]) [%] | Kd (HeLa cells [2]; intact host cells, read-out: apparent KD for intact cells) [nM] | Kd (HeLa cells [2]; saturation binding, ALEXAFLUOR-labeled MBP-MAM proteins, cultivated HeLa cells, read-out: Equilibrium dissociation constants (KD values)) [nM] | PA content of liposomes at which binding was seen [3] [mol %] | binding to PA in lipid overlay assay (Lipid overlay assay) | reduction of the number of MAM7 molecules on cells (trypsinized cells) | effect on attachment of POR1 and pathogen-mediated cytotoxicity (V. parahaemolyticus POR1)
heparin | ~40 | – | – | – | – | – | –
B1 | – | 200 | 200 ± 100 | 1 | bound to PA | over 100 fold | significantly decreased
